Source: patent US9453061B2, “Method and compositions for treatment of calcineurin-related diseases” (BROWN UNIVERSITY, priority 2014, dated 2016)
Each block holds one molecule with its values, some of them ahead of it.

Target: T1, calcineurin (Homo sapiens, UniProt Q08209)
T1 construct: made in house
Assay: Isothermal titration calorimetry (ITC) of RCAN1 constructs with calcineurin
Assay type: binding
Method: Only RCAN1^89-197 (SEQ ID NO: 2) was labeled with NMR active nuclei; calcineurin was unlabeled. […] See, FIG. 2.
Affinity of each RCAN1 construct for calcineurin was measured using ITC to determine the individual contribution of each motif to binding. […] See, FIG. 2A.
The CNB subunit was analyzed to determine whether the subunit influences binding by generating a construct of only the calcineurin catalytic domain, CNAcat containing residues 1-348, and identical to a previously characterized CNA construct. See, Takeuchi et al., Structure 15, 587-97 (2007).
To determine how the TxxP (SEQ ID NO: 11) motif binds and engages calcineurin, the residues within and surrounding the TxxP (SEQ ID NO: 11) motif were mutated (i.e. K182A/E, Q185A, E190R/A, Y191A) and ITC was used to quantify which residues are most critical for calcineurin binding. ITC was used to determine whether the TxxP (SEQ ID NO: 11) motif binds only the CNA catalytic domain, or also requires CNB for binding using RCAN1^128-197, without requiring the LxVP (SEQ ID NO: 10) motif. Calcineurin active site residues were mutated as follows: R122A/D, H151A, D118A, R254A/D; and the change in affinity was quantified.

T1 sequence (Q08209 1-391 limits assumed): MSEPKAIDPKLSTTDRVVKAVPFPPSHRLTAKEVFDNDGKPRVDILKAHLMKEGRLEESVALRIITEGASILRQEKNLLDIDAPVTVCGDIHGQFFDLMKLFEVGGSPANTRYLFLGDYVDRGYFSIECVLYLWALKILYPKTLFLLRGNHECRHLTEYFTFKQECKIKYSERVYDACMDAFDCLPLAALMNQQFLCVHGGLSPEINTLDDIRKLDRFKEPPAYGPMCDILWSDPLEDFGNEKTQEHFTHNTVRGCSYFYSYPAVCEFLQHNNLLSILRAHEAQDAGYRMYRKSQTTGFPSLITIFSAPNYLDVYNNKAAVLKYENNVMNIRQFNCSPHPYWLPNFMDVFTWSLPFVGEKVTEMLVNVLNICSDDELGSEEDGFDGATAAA
T1 sequence (P63098 whole entry partner): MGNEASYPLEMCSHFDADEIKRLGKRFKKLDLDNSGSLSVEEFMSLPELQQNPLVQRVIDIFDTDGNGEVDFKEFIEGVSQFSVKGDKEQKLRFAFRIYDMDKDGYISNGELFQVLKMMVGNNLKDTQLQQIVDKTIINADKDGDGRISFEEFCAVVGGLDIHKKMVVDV

- Kd: ~300 nM
Molecule: RCAN1^128-192: within SEQ ID NO: 2; includes RCAN1^128-164 and the TxxP site

- binding to calcineurin (in words): does not interact directly
B1: RNA-binding domain (amino acid positions 1-88): structured N-terminal RNA-binding domain of RCAN1, amino acid positions 1-88 (protein, UniProt P53805 1-88, looked up, fragment)
chain: MEDGVAGPQLGAAAEAAEAAEARARPGVTLRPFAPLSGAAEADEGGGDWSFIDCEMEEVDLQDLPSATIACHLDPRVFVDGLCRAKFE
